In article PMC4319893 (PLoS ONE, 2015):

Target: T1, SAP-97 PDZ1-2-3 (human, UniProt Q12959 220-554)
T1 construct: human SAP-97, residues 220-554; Synthetic DNA in a modified pRSET vector; source: E. coli BL21(DE3)pLysS, purified (His-Trap IMAC, MonoQ ion exchange)
Test: fluorescence polarisation; competition against the monomeric CRIPT probe; 50 mM TRIS, 100 mM NaCl, 1 mM EDTA, 1 mM DTT; Ki calculated according to Nikolovska-Coleska et al.
Settings: both partners purified

T1 sequence (Q12959 220-554): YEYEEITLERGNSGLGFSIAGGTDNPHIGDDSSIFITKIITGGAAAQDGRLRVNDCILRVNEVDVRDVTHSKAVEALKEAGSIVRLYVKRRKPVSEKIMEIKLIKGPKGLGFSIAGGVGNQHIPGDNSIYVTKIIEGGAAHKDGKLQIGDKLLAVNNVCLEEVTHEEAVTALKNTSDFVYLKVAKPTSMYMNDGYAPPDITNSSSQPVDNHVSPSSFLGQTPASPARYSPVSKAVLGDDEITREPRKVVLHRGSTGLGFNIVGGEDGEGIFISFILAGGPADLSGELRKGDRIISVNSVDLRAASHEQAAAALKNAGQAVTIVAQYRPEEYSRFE

B1: CRIPT-06 (1) (peptide)
peptide: YKQTSV
notes: C-terminal hexapeptide of CRIPT; also called CRIPT hexapeptide; YKQTSV; source: synthetic peptide
A Ki of 1000 nM was found for B1 in this work.
